According to the DeepSol protein solubility set:

Assay: soluble on expression in E. coli; label from the status in PepcDB or PDB records
For “QRKISNIGAQSSMKLEDIKTPSASLTTTLAGRLAGVVAVQRTGEPGKDAADIWIRGIATPNTATPLILVDGVERAFNDIDPEDIESLTTLKDASATAVYGVRGANGVIIIKTKPGK”, the “soluble on expression in E. coli” value was “not soluble”.
With “QSRERLVKWLQDAYAMEKEAETMMAAMASRIEHYPELKRRIEQHVEETQQQSAGVQRCLELLNGSIPTAKGMLSSVLASMHAAGNSMMTDEVTKGVGISYAFEHLEIASYRALVVAARSAGEQEVAQICEDILQQEIEMAEWLIEHQEAIVVAFLE” the “soluble on expression in E. coli” value was “not soluble”.
With “QSVLTQPPSVSAAPGQKVTISCSGSTSNIGNNYVSWYQQHPGKAPKLMIYDVSKRPSGVPDRFSGSKSGNSASLDISGLQSEDEADYYCAAWDDSLSEFLFGTGTKLTVLGQPKAAPSVTLFPPSSEELQANKATLVCLISDFYPGAVTVAWKADSSPVKAGVETTTPSKQSNNKYAASSYLSLTPEQWKSHKSYSCQVTHEGSTVEKTVAPTECS” the “soluble on expression in E. coli” value was “soluble”.
For “QTSAVQQKLAALEKSSGGRLGVALIDTADNTQVLYRGDERFPMCSTSKVMAAAAVLKQSETQKQLLNQPVEIKPADLVNYNPIAEKHVNGTMTLAELSAAALQYSDNTAMNKLIAQLGGPGGVTAFARAIGDETFRLDRTEPTLNTAIPGDPRDTTTPRAMAQTLRQLTLGHALGETQRAQLVTWLKGNTTGAASIRAGLPTSWTAGDKTGSGDYGTTNDIAVIWPQGRAPLVLVTYFTQPQQNAESRRDVLASAARIIAEGL”, the “soluble on expression in E. coli” value was “soluble”.
For “QVGLVRSKNVMIISPKYVAIQERLLRELDKGVTLVPIEGGYRNAKGMLLMTVIREKDFPRLKEAILEIDEEAFLISMSASEVYGKGFSLKKVADSYGVEATNANNLQ”, the “soluble on expression in E. coli” value was “not soluble”.
In the case of “RDHIILIGWNEKTNRLLKDLQLGAPSKTVVLIDESLTEGPLIENVHFIRGHAADDGTLKRANITEAESVMITADQYKSETDADMLSVLTLLSVKGLNPLAYCIVEILTDRFVTNAERAGANQIIGTSEFISRAMLQHYQVKLR”, the “soluble on expression in E. coli” value is reported as “not soluble”.
With “RDIAQRITGATLRAPPCHEEVREAIRDAVGRTLVSNRKVGVAVSGGLDSTILCSELDSLGITDLDLISIQALGSQDGITDLSALELKGEAWKSWRLTASRFDPATYWRDLRRAIAILGEPTQMTSAPLYLGLAEKAAEAGVVVLLLGEGADELFCGYRSYLPMLSGWSLRDFLFRPLERAVCQRLFSGEIQARCAAALDVFTRALPEGDQWTQLRAAEMSHNLEPLLLRADHTLMRCSIEGRTPFLHGDVADLAFSLPIDSLLSPNQTKVFLRQAYFRDLPAHFSTEIKKPFRAPVATWFVGPLKAWLTEEFSRQEAVFACLGIEPGGLEHVLTKTAQGHARMAKVAFCLLTLGFWIDWL” the “soluble on expression in E. coli” value was “not soluble”.
In the case of “RDLKSEVKKRNIQLQFDYPEILSKILLYSNAGLSIKSSIERIVRQYEDEKKKNPKEYHYAYEELKMATVKMKSGVSEINAINQYGERCGLHNYIKLANIIEQNIRRGTGELSFALENELNRALVERKNTALKRGSEISTK”, the “soluble on expression in E. coli” value is reported as “not soluble”.
In the case of “RDLLEQSLPDDIEEEIEKIICSESMVKGVRRIRTRNIGNYYAVEADILMDGGLSVALSHAATQRVEKLLRGRYGQPTHIVIHVEPFS”, the “soluble on expression in E. coli” value is reported as “not soluble”.
For “RFNLFNYREATLIADYGHNPDAMEALVCAIDHIPAKKRTVVISAAGDRRNEDIRLQTRILGDVFDEVVLFQDKCQRGRADGEVLGLLREGLENAKRVRKVSEIRGEFKAIDTALTNLEAGELCLILIDQ”, the “soluble on expression in E. coli” value was “not soluble”.
For “RGRGPEAAAQEEAEEVGRSGPGRRAAQRRSPGLAMLLASAVVVWEWLNEHGRWRPYSPAVSHHIEAVVRAGPRAGGSVVLGQVDSRLAPYIIDLQSMNQFRQDTGTLRPVRRNYYDPSSAPGKGVVWEWENDNGSWTPYDMEVGITIQHAYEKQHPWIDLTSIGFSYVIDFNTMGQINRQTQRQRRVRRRLDLIYPMVTGTLPKAQSWPVSPGPATSPPMSPCSCPQCVLVMSVKAAVVNGSTGPLQLPVTRKNMPPPGVVKLPPLPGSGAKPLDSTGTIRGPLKTAPSQVIRRQASSMPTGTTMGSPASPPGPNSKTGRVALATLNRTNLQRLAIAQSRVLIASGVPTVPVKNLNGSSPVNPALAGITGILMSAAGLPVCLTRPPKLVLHPPPVSKSEIKSIPGVSNTSRKTTKKQAKKGKTPEEVLKKYLQKVRHPPDEDCTICMERLTAPSGYKGPQPTVKPDLVGKLSRCGHVYHIYCLVAMYNNGNKDGSLQCPTCKTIYGVKTGTQPPGKMEYHLIPHSLPGHPDCKTIRIIYSIPPGIQGPEHPNPGKSFSARGFPRHCYLPDSEKGRKVLKLLLVAWDRRLIFAIGTSSTTGESDTVIWNEVHHKTEFGSNLTGHGYPDANYLDNVLAELAAQGISEDSTAQEKD”, the “soluble on expression in E. coli” value was “soluble”.
With “RIETDERDSTNRASFKCPVCSSTFTDLEANQLFDPMTGTFRCTFCHTEVEEDESAMPKKDAR” the “soluble on expression in E. coli” value was “soluble”.
For “RKDMEMNINFNMSYQKNKLLSLSGEYNGMHMTASDITPIGSLYGAGQNGGDNNVVYQIVGQPLGVFYLPHCKGLKENELGGYSYDIEDLNDDGEIDFSDGGDRYIAGQATPKVTIGSNISFRYKSFDIAMQINGAFGHKIFNGTGLAYTNMSIFPDYNVLKGAPEKNIIDQNVSDYWLEKGDYVNIEHITIGYNIPMKSKAVKSLRLSAGISNLATITGYSGLTPMINSYVVSNTLGIDDKRTYPLYRTYSLGLSIQF”, the “soluble on expression in E. coli” value was “not soluble”.
In the case of “RMNVFDEHHFRVILDYAHNADGVRCMSELASKLEVKGKRITVLAGPGDRRDEDIVNIAKAAAGHFDIYICKADDNRRGRGVNEVPELLASSLRAEGIDESQIYCISDEVEAINKGLELANTDDLLMIFGDAITRCWKQIINFNSGHEPEQE”, the “soluble on expression in E. coli” value is reported as “not soluble”.
In the case of “RNKVKYIELLGKELEILKGGDLNYQITIRGNDELAALAGEMDSMRRAIRSRQEEEELAHLANRGIVTAMSHDLRTPLTALMGYLDILSIEEDPGKKQKYLSVCRDKACQIKSLSDKLFEYFLVYSSDQDELHADEVNGAEFVGQIVEESLFDLENEGIEVARRAGEITCRLLVDVDLMRRVFGNLFSNILKYADRSHAVQAEYGETKDELVIRLRNSVAADASERESSNIGLKTCETILKRHGGTFLYQKDAGMFEAEVRIPCIRE”, the “soluble on expression in E. coli” value is reported as “not soluble”.
For “RPDPQEIEAQRKAAIEAARQDSIAKAEAELLAARTQGATPDSIKQAAGYNQYGLLAAATAGAEEQVELANGKIALKLSTKGGAIREVLLRDYKTHDGKPLYLFREGESDFNLPLRTVDNRLVDTRDLYFSPISRTDSSVVMRLAVDSASYLDLAYVLLPDDYRLRMTVSGQNLQSLFPANMTMQDLEWSQRIRRQEKSWKFENQYTSIYYKYSGDEVDRLSDSKQEDKKTLEEPLHWVSFKDKYFASVLVCDSYFENNKLAQKTAAAGSDYLKNCTMSATFPLDVRSGTKARFTFFFGPLKYNMLRAYDKGMKAEDNLDLDHLVYLGASIFRWINRYMIIPASTFLQQYFSN”, the “soluble on expression in E. coli” value was “not soluble”.
In the case of “RPDQVKLALDKPAYNDGDTAKVTVTPPAAGKGYLLIESSEGPLWWKEIDVPAEGKSYEIPLDKQWARHDLYVTALVIRPGERKANVTPKRAVGVLHLPLDRAQRKLALTVTAPEKMRPKQPLTLKVVAKNADGSVPEQVQVLVSAVDVGILNITRY”, the “soluble on expression in E. coli” value is reported as “not soluble”.
In the case of “RPHVVKVYSEDGACRSVEVAAGATARHVCEMLVQRAHALSDETWGLVECHPHLALERGLEDHESVVEVQAAWPVGGDSRFVFRKNFA”, the “soluble on expression in E. coli” value is reported as “soluble”.
With “RSARPPGPRVSRARCLPGLIAEQLLQQAARGQDRQQQLQRDPQKALCDLHPSWKEIQALQCRPGHPPEQPWETSQMPESQVKGSRRPKFHARPEDYAVSQPNRDIQEKREASLEESPVALGESASVPQVSETVPASQPLSKKTSSQSNSSSEGSMWATVPSSPTLDRDTASEVDDLEPDSVSLALEMGGSAAPAAPKLKIFMAQYNYNPFEGPNDHPEGELPLTAGDYIYIFGDMDEDGFYEGELDDGRRGLVPSNFVEQIPDSYIPGCLPAKSPDLGPSQLPAGQDEALEEDSLLSGKAQGVVDRGLCQMVRVGSKTEVATEILDTKTEACQLGLLQSMGKQGLSRPLLGTKGVLRMAPMQLHLQNVTATSANITWVYSSHRHPHVVYLDDREHALTPAGVSCYTFQGLCPGTHYRARVEVRLPRDLLQVYWGTMSSTVTFDTLLAGPPYPPLDVLVERHASPGVLVVSWLPVTIDSAGSSNGVQVTGYAVYADGLKVCEVADATAGSTLLEFSQLQVPLTWQKVSVRTMSLCGESLDSVPAQIPEDFFMCHRWPETPPFSYTCGDPSTYRVTFPVCPQKLSLAPPSAKASPHNPGSCGEPQAKFLEAFFEEPPRRQSPVSNLGSEGECPSSGAGSQAQELAEAWEGCRKDLLFQKSPQNHRPPSVSDQPGEKENCSQHMGTSKSPAPGFIHLRTECGPRKEPCQEKAALERVLRQKQDAQGFTPPQLGASQQYASDFHNVLKEEQEALCLDLWGTERREERREPEPHSRQGQALGVKRGCQLHEPSSALCPAPSAKVIKMPRGGPQQLGTGANTPARVFVALSDYNPLVMSANLKAAEEELVFQKKQLLRVWGSQDTHDFYLSECNRQVGNIPGCLVAEMEVGTEQTDRRWRSPAQGHLPSVAHLEDFQGLTIPQGSSLVLQGNSKRLPLWTPKIMIAALDYDPGDGQMGGQGKGRLALRAGDVVMVYGPMDDQGFYYGELGGHRGLVPAHLLDHMSLHGH” the “soluble on expression in E. coli” value was “soluble”.
With “RSPYDMEVIGQTIDDAAGEAFDKCAKVMGLGYPGGPIVNKLASEGNPDAFRFARPHVSGYDYSFSGLKTSFLYTLRDKLAEDPDFIEKNKADLCASLQHTVIDILMKKLRQAAKDHSIKQVALAGGVSANTGLRDAFHDHARRYGWTVFIPKFAYTTDNAAMVAISGYYKYLQGDFCPIDAVPFSRITV” the “soluble on expression in E. coli” value was “not soluble”.
For “RTHSGEKPYECYICHARFTQSGTMKMHILQKHTENVAKFHCPHCDTVIARKSDLGVHLRKQHSY”, the “soluble on expression in E. coli” value was “soluble”.
In the case of “RVAGSAIDYWRAGILGKRRVRVENHIVLLGWNGSRTMHLIRMLQHEEEGKRPIVLCSRSDIENPLPGEIHFIKVTSYTDAQEMKNANITDASCIIVDNLSDDITLSAALYCASVNPDAHLLAYFKDDALGRLLSQHCPKAECIPAVGAEMLAKAAVDPGSSALHQELLASTRGMTQYSVIYPENQPITTIESIFGFIKKRHHATLIAFDIGNGIQLNPDLDAEVPPGTKLFYIADERIDDFAWKEMNKEQ”, the “soluble on expression in E. coli” value is reported as “not soluble”.
For “RVARGWGGCGACGGSGIVGQGKGEPSRRRGRAAGRPQSMERGKMAEAESLETAAEHERILREIESTDTACIGPTLRSVYDGEEHGRFMEKLETRIRNHDREIEKMCNFHYQGFVDSITELLKVRGEAQKLKNQVTDTNRKLQHEGKELVIAMEELKQCRLQQRNISATVDKLMLCLPVLEMYSKLRDQMKTKRHYPALKTLEHLEHTYLPQVSHYRFCKVMVDNIPKLREEIKDVSMSDLKDFLESIRKHSDKIGETAMKQAQQQRNLDNIVLQQPRIGSKRKSKKDAYIIFDTEIESTSPKSEQDSGILDVEDEEDDEEVPGAQDLVDFSPVYRCLHIYSVLGARETFENYYRKQRRKQARLVLQPPSNMHETLDGYRKYFNQIVGFFVVEDHILHTTQGLVNRAYIDELWEMALSKTIAALRTHSSYCSDPNLVLDLKNLIVLFADTLQVYGFPVNQLFDMLLEIRDQYSETLLKKWAGIFRNILDSDNYSPIPVTSEEMYKKVVGQFPFQDIELEKQPFPKKFPFSEFVPKVYNQIKEFIYACLKFSEDLHLSSTEVDDMIRKSTNLLLTRTLSNSLQNVIKRKNIGLTELVQIIINTTHLEKSCKYLEEFITNITNVLPETVHTTKLYGTTTFKDARHAAEEEIYTNLNQKIDQFLQLADYDWMTGDLGNKASDYLVDLIAFLRSTFAVFTHLPVSGSCSYFVLYI”, the “soluble on expression in E. coli” value was “soluble”.
